Laboratory results taken from patent US20110152176A1, “AGR-MEDIATED INHIBITION AND DISPERSAL OF BIOFILMS” (priority 2008, published 2011).

Experiments:
S. aureus SH1000 biofilm = test: Flow cell biofilm detachment (CLSM, COMSTAT biomass, effluent CFU); assay type: cell-based, Staphylococcus aureus; settings: SH1000 2-day biofilm, proteinase K 2 mg/mL
Method: (§1) Biofilm experiments. Microtiter plate biofilms were performed as described (Shanks et al., 2005) except that the plates were incubated at 37° C. with shaking at 200 rpm for 12 hours. For flow cell experiments, AIPs were generated using the DnaB intein method, and the AIP concentrations were determined as previously described (Malone et al., 2007). AIPs stocks (20 mM) were stored in 100 mM phosphate (pH 7), 50 mM NaC1, 1 mM tris(2-carboxyethyl) phosphine (TCEP) and were diluted into the biofilm flow medium to a final concentration of 50 nM. When required, […] of erythromycin and/or chloramphenicol were added to the flow cell media to maintain plasmids. The growth medium for flow cell biofilms consisted of 2% TSB plus 0.2% glucose unless otherwise indicated. Flow cell biofilm experiments and confocal microscopy were performed as previously described (Yarwood et al., 2004). […] Biofilm biomass was quantified with the COMSTAT program (Heydorn et al., 2000) and percent biomass detached was calculated by subtracting biomass present at day 4 from day 2. To quantitate the number of bacteria detaching from a biofilm, 1 ml of flow cell effluent was collected on ice at indicated time points. […]
AIP detaches S. aureus biofilms. […] To confirm that AIP-I caused detachment, the inventors counted viable S. aureus cells in the effluent media (FIG. 2C). […]

SH1000 biofilm = test: Microtiter plate biofilm formation; assay type: cell-based, Staphylococcus aureus; settings: proteinase K added to SH1000 (data not shown)
Method: as §1, with “2004). Flow cells were inoculated with overnight cultures diluted 1:100 in sterile water and laminar flow ([…]) was initiated after one hour incubation.” for “2004).”

B1: proteinase K: protease enzyme (Sigma-Aldrich) suspended in water and added to the media reservoir (protein, UniProt P06873 106-384, looked up)
Proteinase K: AAQTNAPWGLARISSTSPGTSTYYYDESAGQGSCVYVIDTGIEASHPEFEGRAQMVKTYYYSSRDGNGHGTHCAGTVGSRTYGVAKKTQLFGVKVLDDNGSGQYSTIIAGMDFVASDKNNRNCPKGVVASLSLGGGYSSSVNSAAARLQSSGVMVAVAAGNNNADARNYSPASEPSVCTVGASDRYDRRSSFSNYGSVLDIFGPGTSILSTWIGGSTRSISGTSMATPHVAGLAAYLMTLGKTTAASACRYIADTANKGDLSNIPFGTVNLLAYNNYQA
In the case of B1, the “biofilm detachment observed by CLSM” value (S. aureus SH1000 biofilm) is reported as “rapid detachment over 12 hrs” and the “biofilm development in microtiter plate” value (SH1000 biofilm) is reported as “biofilms were unable to develop”.
